# Publication PMC10172501, “Heparanase-2 protein and peptides have a protective effect on experimental glomerulonephritis and diabetic nephropathy” (Frontiers in Pharmacology, 2023)
# Entries after “also recorded” stand apart in the source; their conditions may differ.
# T1: recombinant active human HPSE1 (Homo sapiens, UniProt Q9Y251)
# T1 construct: recombinant active human HPSE1; purchased Bio-techne 7570-GH-005
# T1 sequence (Q9Y251 158-543 limits assumed): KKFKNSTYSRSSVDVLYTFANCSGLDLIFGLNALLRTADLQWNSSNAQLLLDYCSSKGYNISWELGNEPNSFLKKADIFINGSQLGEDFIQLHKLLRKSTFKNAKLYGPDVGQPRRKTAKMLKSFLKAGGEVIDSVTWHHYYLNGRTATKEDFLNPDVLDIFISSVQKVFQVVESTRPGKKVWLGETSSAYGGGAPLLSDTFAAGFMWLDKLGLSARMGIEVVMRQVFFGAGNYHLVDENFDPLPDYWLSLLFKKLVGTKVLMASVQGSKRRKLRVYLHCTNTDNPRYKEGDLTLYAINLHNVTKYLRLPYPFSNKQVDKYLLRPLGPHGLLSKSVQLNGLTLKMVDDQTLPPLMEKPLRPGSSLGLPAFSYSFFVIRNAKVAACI
# T1 sequence (Q9Y251 36-109 limits assumed): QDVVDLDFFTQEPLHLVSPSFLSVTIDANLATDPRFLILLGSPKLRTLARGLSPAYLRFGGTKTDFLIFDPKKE
# B1: HPSE2 protein: His-tagged mouse heparanase-2 protein produced by in vitro translation in HeLa lysate; b60 values from Kiyan et al. concern their protein (protein, UniProt B2RY83 1-592, looked up)
# chain: MRVLCAFPEAMASSSSRPPSCLALVALFLALLLHLSLSFHAGNRRPLPVDRATGLKEKTLILLDVSTKNPVRTVNENFLSLQLDPSIIHDGWLDFLSSKRLVTLARGLSPAFLRFGGKRTDFLQFQNLRNPAKSRGGPGPDYYLKNYEDDIVRSDVALDKQKGCKIAQHPDVMLELQREKASQMHLVLLKEQYSNTYSNLILTARSLDKLYNFADCSGLHLIFALNALRRNPNNSWNSSSALSLLKYSASKKYNISWELGNEPNNYRSIHGRAVNGSQLGKDYIQLKSLLQPIRVYSRASLYGPNIGRPRKNVIALLDGFMKVAGSTVDAVTWQHCYIDGRVVKVMDFLKTRLLDTLSDQIRKIQKVVNTYTPGKKIWLEGVVTTSAGGTNNLSDSYAAGFLWLNTLGMLANQGIDVVIRHSFFDHGYNHLVDQNFNPLPDYWLSLLYKRLIGPKVLAVHVAGLQRKPRPGRVIRDKLRIYAHCTNHHNHNYVRGSITLFIINLHRSRKKIKLAGTLRDKLVHQYLLQPYGQEGLKSKSVQLNGQPLVMVDDGTLPELKPRPLRAGRTLVIPPVTMGFYVVKNVNALACRYR
# modifications: full-length His tag
# notes: His-tagged mouse heparanase-2 protein produced by in vitro translation in HeLa lysate; b60 values from Kiyan et al. concern their protein
# How the values were obtained:
# [1] = system: HPSE1; conditions: ref Simeonovic et al., 2013; cited from earlier work
# From the text: Other HPSE1 inhibitors have been tested both in vitro and in vivo for their application in glomerular diseases as well. Administration of HPSE1 substrates, such as soluble HS, heparin, and low-molecular-weight heparins, all comprise the potential to reduce albuminuria. One example of such class of drugs is sulodexide, which is a highly purified mixture that consists for 80% of low-molecular-weight heparin and for 20% of dermatan sulfate ([Poplawska et al., 1997]).
# [2] = molecular target: T1, recombinant active human HPSE1; experiment: HPSE1 activity assay (inhibition of HPSE1 activity; commercial kit and in-house HS-coated plate assay); format: biochemical; conditions: for inhibition of HPSE1 activity, first screening experiment of all 30 HPSE2 peptides: data not shown, recombinant HPSE1
# Protocol: The inhibition of HPSE1 activity by HPSE2 protein and peptides was determined by the commercially available HPSE1 assay kit and an in-house developed HPSE1 activity assay, which was optimized by the use of recombinant active human HPSE1 (Bio-techne, Abingdon, United Kingdom, Cat#7570-GH-005). The in-house developed activity assay was performed as described previously ([Buijsers et al., 2020]). In short, Nunc maxisorp flat bottom 96 plates (Thermo scientific, Breda, Netherlands) were coated with 10 μg/mL heparan sulfate from bovine kidney (HSBK) (Sigma-Aldrich, Zwijndrecht, Netherlands) in optimized HS coating buffer, overnight in a humidified chamber at RT. Subsequently, plates were blocked for minimal 2 h with 1% bacto-gelatin (Difco laboratories, Detroit, Michigan, United States) in PBS at RT whereupon HPSE1 inhibitors were added to the plate with a standard amount of recombinant HPSE1 in HPSE1 buffer. Remaining HSBK was detected with primary mouse […] IgM HS antibody JM403 (Amsbio, Abingdon, United Kingdom, cat. No. #370730-S, RRID: AB_10890960, 1 μg/mL in PBST) for 1 h at RT. Subsequently, plates were incubated with secondary goat anti-mouse IgM HRP antibody (Southern Biotech, Uden, Netherlands, cat. No. #1020–05, RRID: AB_2794201, dilution 1:10,000 in PBST) for 1 h at RT. Finally, 3,3′,5,5′-tetramethylbenzidine (TMB) substrate (Invitrogen, Breda, Netherlands) was added and reaction was stopped by addition of 2 M sulfuric acid, and absorbance was measured at 450 nm.
# [3] = system: LPS-induced glomerulonephritis in wt C57Bl/6J mice; experiment: LPS-induced glomerulonephritis mouse model; format: in vivo; conditions: for cortical IL-6 mRNA expression: Figure 5F, IL-6 not detectable in control mice
# Protocol: Experimental LPS-induced glomerulonephritis was induced in eight-to twelve-week-old wt C57Bl/6J mice by an i. p. injection with 80 µg LPS (O111:B4; Sigma-Aldrich Chemie, Zwijndrecht, Netherlands) as described previously ([Garsen et al., 2016a]). The mice were treated with heparanase 2 (HPSE2) protein and an equal mix of HPSE2 peptides (Thermo Fisher Scientific, Breda, Netherlands) 381–410, 391–420, and 401–430, amino acids respectively, via repeated i. v injection with 12 h intervals starting 6 h after LPS injection. Mice were sacrificed 48 h after LPS injection.
# (§1) Kidneys were collected and snap frozen in liquid nitrogen and urine was collected after 18 h housing in metabolic cages upon termination. Urinary albumin was measured by radial immunodiffusion (Mancini) as described previously ([Garsen et al., 2016a]). Blood urea nitrogen (BUN) and urinary/plasma creatinine concentrations were determined routinely in our clinical diagnostic facility.
# (§2) RNA was isolated from the kidney cortex using RNeasy mini kit (Qiagen) and 1 µg of RNA was reverse transcribed into cDNA using the Transcription First Strand cDNA synthesis kit (Roche, Woerden, Netherlands) according to manufacturer’s instructions. Quantitative PCR was performed with SYBR Green (Roche, Woerden, Netherlands) on a CFX 96 C1000 Thermal Cycler (Bio-rad, Lunteren, Netherlands) to determine expression levels. Data was analysed using glyceraldehyde-3-phosphate dehydrogenase (GAPDH) as housekeeping gene and by making use of the delta-delta CT method.
# [4] = system: STZ-induced diabetic nephropathy in wt DBA/2J mice; experiment: Streptozotocin (STZ)-induced type 1 diabetic nephropathy mouse model; format: in vivo
# Protocol: Experimental streptozotocin (STZ)-induced type 1 diabetes was induced in six-to eight-week-old wt DBA/2J mice (Charles River, Germany). Mice were first fasted for 4 h whereafter the mice were injected i. p. with 50 mg/kg STZ (Sigma-Aldrich Chemie, Zwijndrecht, Netherlands) in 250 mM sodium citrate buffer (pH 4.5), whereas controls were injected with sodium citrate buffer alone for 5 consecutive days. Blood glucose levels were measured twice a week using the ACCU-CHEK Aviva Blood Glucose Meter (Roche Diagnostics, Almere, Netherlands) to monitor that blood glucose levels would not raise above 25 mmol/L. Mice were implanted under the skin half an insulin pellet (LinShin Canada, Toronto, Canada) when their blood glucose level did raise above 25 mmol/L. The mice were treated with HPSE2 protein via continuous s. c infusion with an osmotic mini pump 8 weeks after the final injection with STZ for a duration of 4 weeks. Mice were sacrificed 12 weeks after induction of diabetes.
# as §1, §2
# [5] = system: mice induced with LPS; conditions: LPS co-injected with protein compared to LPS alone, upon 2 h; ref Kiyan et al., 2019; cited from earlier work
# Protocol: Since HPSE1 is also involved in inflammation ([Goodall et al., 2014]; [Lever et al., 2014]), the increased HPSE1 and TNF-α expression might be prevented if HPSE2 is administered concomitant with LPS at induction of experimental glomerulonephritis. This effect has been shown previously by Kiyan et al. in the CLP sepsis mouse model. They reported decreased plasma levels of IL-6 and TNF-α in mice induced with LPS co-injected with full-length HPSE2 protein compared to LPS alone already upon 2 h. Unfortunately, no assessment of cytokine or HPSE1 mRNA expression in the renal cortex or other tissues ...
molecule,measurement,setting,value
PI-88,"HPSE1 inhibition in animal models for glomerular diseases, such as DN",[1],effective HPSE1 inhibitor
"FLWLNTLGMLANQGIDVVIRHSFFDHGYNH [HPSE2 peptide 401–430, HPSE2-derived peptide, AA region 401–430]","inhibition of HPSE1 activity, first screening experiment of all 30 HPSE2 peptides",[2],showed great promise as inhibitor of HPSE1 activity
same,"inhibition of HPSE1 activity, first screening experiment of all 30 HPSE2 peptides",[2]; listed as 401–430,most effective
"GVVTTSAGGTNNLSDSYAAGFLWLNTLGML [HPSE2 peptide 381–410, HPSE2-derived peptide, AA region 381–410]","inhibition of HPSE1 activity, first screening experiment of all 30 HPSE2 peptides",[2],showed great promise as inhibitor of HPSE1 activity; also recorded: most effective
B1,plasma creatinine levels,"[3]; 80 µg LPS i.p., repeated i.v. injection at 12 h intervals starting 6 h after LPS, 48 h, n ≥ 4, Figure 5B",significantly ameliorated
same,urinary albumin creatinine ratio,"[3]; 80 µg LPS i.p., repeated i.v. injection at 12 h intervals starting 6 h after LPS, 48 h, n ≥ 4, Figure 5C",significantly ameliorated; also recorded: dose response inhibitory effect
same,blood urea nitrogen (BUN),"[3]; 80 µg LPS i.p., repeated i.v. injection at 12 h intervals starting 6 h after LPS, sacrificed 48 h after LPS, mean ± SEM, n ≥ 4, Figure 5A",significantly ameliorated; also recorded: dose response inhibitory effect
same,cortical HPSE1 mRNA expression,"[3]; LPS model, 2 days, qPCR, GAPDH housekeeping, Figure 5D",unaltered
same,cortical TNF-α mRNA expression,"[3]; LPS model, 2 days, qPCR, Figure 5E",unaltered
same,cortical IL-6 mRNA expression,"[3]; LPS model, 2 days, qPCR",decrease
same,cortical IL-6 mRNA expression,"[3]; LPS model, 2 days, qPCR, listed as HPSE2",near-significantly decreased
same,urinary albumin creatinine ratio,"[4]; STZ 50 mg/kg i.p. 5 days, continuous s.c. infusion by osmotic mini pump from 8 weeks after STZ for 4 weeks, sacrificed at 12 weeks, n ≥ 5, Figure 6C",significantly ameliorated
same,cortical HPSE1 mRNA expression,"[4]; STZ model, 12 weeks, qPCR, Figure 6D",unaltered
same,cortical TNF-α mRNA expression,"[4]; STZ model, 12 weeks, qPCR, Figure 6E",unaltered
same,cortical IL-6 mRNA expression,"[4]; STZ model, 12 weeks, qPCR, with versus without treatment, Figure 6F",did not show a significant difference
same,dose response inhibition of recombinant human HPSE1,"[2]; Figure 4, HS from bovine kidney coated plates, remaining HS detected with JM403, absorbance 450 nm",dose-dependent inhibition of HPSE1 activity
same,plasma levels of IL-6,[5],decreased
same,plasma levels of TNF-α,[5],decreased
